Paper PMC12084609, “Structural insights into small-molecule agonist recognition and activation of complement receptor C3aR” (The EMBO Journal, 2025)
Substitutions are numbered along the chain they refer to. Several values for one entry are separate records, joined by “and”; a condition that tells them apart may be missing. Equal values may be shown once.

Tests used:
Format in all cases: cell-based
C3aR = C3aR (Homo sapiens, UniProt Q16581); assay: Gi recruitment BRET assay (C3aR-eYFP / Gαi-Rluc8, HEK293T); settings: for ΔBRET (ligand-vehicle): individual replicates
Experimental: HEK293T cells were seeded on 6-well plates (NEST) and transfected with pcDNA3.1 plasmids encoding C3aR-eYFP, Gαi-Rluc8, Gβ1, and Gγ2 with a ratio of 5:1:1:1. After 48 h, cells were harvested and resuspended with in PBS. Cells were treated with test ligand with various concentrations and seeded on 96-well white bottom plates (SPL). After 3 min incubation at 37 °C, coelenterazine h (Nanolight) was added with a final concentration of 10 μM. Luminescence and fluorescence were measured using a Tristar 2 LB 942 multimode reader (Berthold).

C3aR I98^3.28A = target: T1, C3aR I98^3.28A (Homo sapiens, UniProt Q16581, I98A); assay: GloSensor-based cAMP assay, C3aR mutant I98A; settings: for cAMP response (% Forskolin): I983.28A, single replicates
T1 construct: expressed in transfected cells; host or cells: HEK293T
T1 sequence (Q16581 1-482 I98A): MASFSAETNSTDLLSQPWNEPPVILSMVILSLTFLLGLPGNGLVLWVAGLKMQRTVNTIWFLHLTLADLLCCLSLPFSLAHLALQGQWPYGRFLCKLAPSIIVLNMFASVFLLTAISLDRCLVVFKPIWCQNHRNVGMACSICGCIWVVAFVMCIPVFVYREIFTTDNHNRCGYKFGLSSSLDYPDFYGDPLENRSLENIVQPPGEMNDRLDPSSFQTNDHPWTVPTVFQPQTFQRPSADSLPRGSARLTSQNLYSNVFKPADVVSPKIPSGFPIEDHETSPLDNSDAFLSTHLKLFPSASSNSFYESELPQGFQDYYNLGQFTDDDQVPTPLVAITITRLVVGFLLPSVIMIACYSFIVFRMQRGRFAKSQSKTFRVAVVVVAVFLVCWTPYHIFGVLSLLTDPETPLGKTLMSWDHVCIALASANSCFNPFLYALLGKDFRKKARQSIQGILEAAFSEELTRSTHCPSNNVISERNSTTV
Experimental: (§1) HEK293T cells were seeded on 6-well plates (NEST) and transfected with pGlosensor™-22F plasmids (Promega) and pcDNA3.1 plasmids encoding C3aR or its mutants an with N-terminal FLAG tag. After 48 h, cells were detached with Accutase solution (Sigma-Aldrich) and washed with PBS, and resuspended in assay buffer (CO2-independent medium with 0.5 mg mL^−1D-luciferin). 100,000–200,000 cells were seeded on 96-well white bottom plates (SPL) and incubated at 37 °C for 45 min followed by 45 min incubation at room temperature. After 90 min of incubation, basal luminescence signals were recorded. In total, 25 μl of test ligand with various concentrations and 1 μM Forskolin (Sigma-Aldrich) were treated to the cells and luminescence signals were measured by Tristar 2 LB 942 multimode reader (Berthold). […] Relative luminescence unit (%) was calculated with the signal of wells treated with vehicle as 0% and the signal of wells treated with 1 μM Forskolin as 100% (DiRaddo et al, [2014]). Nonlinear regression was performed using a three-parameter logistic equation.

C3aR D417^7.35A = target: T2, C3aR D417^7.35A (Homo sapiens, UniProt Q16581, D417A); assay: GloSensor-based cAMP assay, C3aR mutant D417A; settings: D4177.35A, single replicates
T2 construct: expressed in transfected cells; host or cells: HEK293T
T2 sequence (Q16581 1-482 D417A): T1 sequence (Q16581 1-482 I98A) with A98I, D417A
Experimental: as §1

C3aR L82^2.64A = target: T3, C3aR L82^2.64A (Homo sapiens, UniProt Q16581, L82A); assay: GloSensor-based cAMP assay, C3aR mutant L82A; settings: for cAMP response (% Forskolin): L822.64A, single replicates
T3 construct: expressed in transfected cells; host or cells: HEK293T
T3 sequence (Q16581 1-482 L82A): T1 sequence (Q16581 1-482 I98A) with L82A, A98I
Experimental: as §1

[1] = Dunnett's multiple comparisons test, WT minus mutant

Chain of C3aR (Q16581 whole entry): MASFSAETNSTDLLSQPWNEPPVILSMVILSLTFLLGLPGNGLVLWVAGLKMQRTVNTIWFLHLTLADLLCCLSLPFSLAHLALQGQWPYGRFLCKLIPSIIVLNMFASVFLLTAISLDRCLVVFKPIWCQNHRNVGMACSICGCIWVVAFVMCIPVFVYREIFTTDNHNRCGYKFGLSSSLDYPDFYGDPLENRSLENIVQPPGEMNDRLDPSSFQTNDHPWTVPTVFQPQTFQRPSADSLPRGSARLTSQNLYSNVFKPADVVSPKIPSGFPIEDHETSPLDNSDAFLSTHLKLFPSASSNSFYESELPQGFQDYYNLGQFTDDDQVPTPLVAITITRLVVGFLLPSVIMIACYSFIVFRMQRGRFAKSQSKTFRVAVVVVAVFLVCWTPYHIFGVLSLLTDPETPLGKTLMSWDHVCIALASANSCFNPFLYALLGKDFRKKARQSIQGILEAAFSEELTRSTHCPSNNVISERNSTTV
Chain of C3aR (P63096 2-354 partner limits assumed): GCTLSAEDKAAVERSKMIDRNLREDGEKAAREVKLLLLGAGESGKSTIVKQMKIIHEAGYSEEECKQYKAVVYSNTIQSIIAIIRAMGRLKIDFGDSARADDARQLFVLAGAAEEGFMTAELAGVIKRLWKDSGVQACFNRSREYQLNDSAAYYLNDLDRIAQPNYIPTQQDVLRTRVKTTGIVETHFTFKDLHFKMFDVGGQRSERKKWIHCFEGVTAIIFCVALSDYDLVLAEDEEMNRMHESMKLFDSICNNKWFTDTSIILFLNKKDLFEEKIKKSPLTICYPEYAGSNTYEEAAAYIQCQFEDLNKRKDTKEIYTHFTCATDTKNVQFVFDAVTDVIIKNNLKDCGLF
Chain of C3aR (P62873 2-340 partner limits assumed): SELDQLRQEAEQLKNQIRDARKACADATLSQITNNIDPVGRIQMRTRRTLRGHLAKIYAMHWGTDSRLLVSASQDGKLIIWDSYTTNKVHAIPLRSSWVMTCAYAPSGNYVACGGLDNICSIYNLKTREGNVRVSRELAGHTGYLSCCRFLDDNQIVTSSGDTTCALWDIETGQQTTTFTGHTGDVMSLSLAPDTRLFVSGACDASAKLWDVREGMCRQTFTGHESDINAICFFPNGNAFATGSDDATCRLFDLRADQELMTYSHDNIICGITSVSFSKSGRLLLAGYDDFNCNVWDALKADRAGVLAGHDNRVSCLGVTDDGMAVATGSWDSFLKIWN
Chain of C3aR (P59768 2-68 partner limits assumed): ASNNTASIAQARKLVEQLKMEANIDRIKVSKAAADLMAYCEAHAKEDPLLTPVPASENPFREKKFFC

In the case of “C3a: anaphylatoxin C3a, natural peptide ligand of C3aR (a 77-amino acid peptide), Sigma-Aldrich”, the “pEC50 Value” (C3aR; Figure EV1A numerical data, curve fit) is reported as 8.52, the “ΔBRET (ligand-vehicle)” value (C3aR; Log[ligand (M)] -7) is reported as 0.032 and 0.030 and 0.024 and 0.026 and the “ΔBRET (ligand-vehicle)” value (C3aR; Log[ligand (M)] -8) is reported as 0.029 and 0.025 and 0.020 and 0.022. For the same substance, the “ΔBRET (ligand-vehicle)” value (C3aR; Log[ligand (M)] -9) was 0.010 and 0.009 and 0.006 and 0.007, the “ΔBRET (ligand-vehicle)” value (C3aR; Log[ligand (M)] -10) was 0.00235 and 0.00134 and 0.00248 and 0.003 and the “ΔBRET (ligand-vehicle)” value (C3aR; Log[ligand (M)] -11) was 0.000317 and 0.00116 and 0.00278 and 0.00544. For the same substance, the “ΔBRET (ligand-vehicle)” value (C3aR; Log[ligand (M)] -12) was 0.000368 and 0.000727 and 0.00354 and 0.006, the “Span Value” (C3aR; span of ΔBRET curve, Figure EV1A numerical data) was 0.027 and the “Mean Diff. of pIC50, WT vs. I98A” value (C3aR I98^3.28A; [1]) was 0.113. For the same substance, the “ΔpIC50 ± SE of Diff.” value (C3aR I98^3.28A; I98^3.28A relative to WT C3aR) was -0.11 ± 0.02, the IC50 (C3aR I98^3.28A; I98^3.28A, dose-response plot, read-out: IC50) was 4.07 nM and the “pIC50 (Replicate)” value (C3aR I98^3.28A; I98^3.28A, individual replicates) was 8.38 (2×) and 8.42 and 8.40 and 8.08 and 8.54 and 8.47. The “pIC50 ± SEM (Mean)” value (C3aR I98^3.28A; I98^3.28A, mean of independent experiments) was 8.38 ± 0.05 and 8.38, the “cAMP response (% Forskolin)” value (C3aR I98^3.28A; Log[C3a (M)] -7) was 12.31 % Forskolin and 10.90 % Forskolin and 9.84 % Forskolin and 8.89 % Forskolin and 11.38 % Forskolin and 5.37 % Forskolin and 7.43 % Forskolin and the “cAMP response (% Forskolin)” value (C3aR I98^3.28A; Log[C3a (M)] -8) was 27.29 % Forskolin and 21.82 % Forskolin and 20.14 % Forskolin and 14.26 % Forskolin and 42.67 % Forskolin and 12.53 % Forskolin and 15.24 % Forskolin. For the same substance, the “cAMP response (% Forskolin)” value (C3aR I98^3.28A; Log[C3a (M)] -9) was 88.79 % Forskolin and 95.53 % Forskolin and 90.20 % Forskolin and 95.03 % Forskolin and 96.77 % Forskolin and 78.73 % Forskolin and 85.71 % Forskolin, the “cAMP response (% Forskolin)” value (C3aR I98^3.28A; Log[C3a (M)] -10) was 99.83 % Forskolin and 101.03 % Forskolin and 99.65 % Forskolin and 94.56 % Forskolin and 95.76 % Forskolin and 97.03 % Forskolin and 93.13 % Forskolin and the “cAMP response (% Forskolin)” value (C3aR I98^3.28A; Log[C3a (M)] -11) was 97.32 % Forskolin and 101.48 % Forskolin and 99.97 % Forskolin and 96.12 % Forskolin and 97.86 % Forskolin and 93.68 % Forskolin and 92.51 % Forskolin. For the same substance, the “cAMP response (% Forskolin)” value (C3aR I98^3.28A; Log[C3a (M)] -12) was 95.26 % Forskolin and 98.35 % Forskolin and 96.71 % Forskolin and 98.06 % Forskolin and 93.96 % Forskolin and 97.55 % Forskolin and 101.79 % Forskolin, the “cAMP response (% Forskolin)” value (C3aR D417^7.35A; Log[C3a (M)] -7) was 91.99 % Forskolin and 99.64 % Forskolin and 84.06 % Forskolin and the “cAMP response (% Forskolin)” value (C3aR D417^7.35A; Log[C3a (M)] -8) was 90.00 % Forskolin and 93.47 % Forskolin and 96.64 % Forskolin. For the same substance, the “cAMP response (% Forskolin)” value (C3aR D417^7.35A; Log[C3a (M)] -9) was 98.82 % Forskolin and 114.21 % Forskolin and 106.52 % Forskolin, the “cAMP response (% Forskolin)” value (C3aR D417^7.35A; Log[C3a (M)] -10) was 109.81 % Forskolin and 104.73 % Forskolin and 103.88 % Forskolin and the “cAMP response (% Forskolin)” value (C3aR D417^7.35A; Log[C3a (M)] -11) was 98.54 % Forskolin and 110.53 % Forskolin and 108.95 % Forskolin. The “cAMP response (% Forskolin)” value (C3aR D417^7.35A; Log[C3a (M)] -12) was 97.82 % Forskolin and 107.45 % Forskolin and 101.02 % Forskolin, the “Mean Diff. of pIC50, WT vs. L82A” value (C3aR L82^2.64A; [1]) was -0.166 and the “ΔpIC50 ± SE of Diff.” value (C3aR L82^2.64A; L82^2.64A relative to WT C3aR) was 0.17 ± 0.05. The IC50 (C3aR L82^2.64A; L82^2.64A, dose-response plot, read-out: IC50) was 1.98 nM, the “pIC50 (Replicate)” value (C3aR L82^2.64A; L82^2.64A, individual replicates) was 8.88 and 8.82 and 8.71 and 8.44 and the “pIC50 ± SEM (Mean)” value (C3aR L82^2.64A; L82^2.64A, mean of independent experiments) was 8.71 ± 0.10 and 8.71. For the same substance, the “cAMP response (% Forskolin)” value (C3aR L82^2.64A; Log[C3a (M)] -7) was 6.88 % Forskolin and 9.71 % Forskolin and 10.14 % Forskolin and 11.39 % Forskolin, the “cAMP response (% Forskolin)” value (C3aR L82^2.64A; Log[C3a (M)] -8) was 8.74 % Forskolin and 11.60 % Forskolin and 12.67 % Forskolin and 19.68 % Forskolin and the “cAMP response (% Forskolin)” value (C3aR L82^2.64A; Log[C3a (M)] -9) was 57.84 % Forskolin and 63.09 % Forskolin and 70.46 % Forskolin and 87.20 % Forskolin. For the same substance, the “cAMP response (% Forskolin)” value (C3aR L82^2.64A; Log[C3a (M)] -10) was 90.69 % Forskolin and 88.60 % Forskolin and 91.27 % Forskolin and 91.83 % Forskolin, the “cAMP response (% Forskolin)” value (C3aR L82^2.64A; Log[C3a (M)] -11) was 96.32 % Forskolin and 92.63 % Forskolin and 98.10 % Forskolin and 96.40 % Forskolin and the “cAMP response (% Forskolin)” value (C3aR L82^2.64A; Log[C3a (M)] -12) was 96.44 % Forskolin and 101.07 % Forskolin and 97.65 % Forskolin and 97.10 % Forskolin.
